In PMC4615104 (Cell Cycle, 2015):

Target: recombinant hMDM2 (human, UniProt Q00987 1-491)
Test: ELISA

Sequence of recombinant hMDM2 (Q00987 whole entry): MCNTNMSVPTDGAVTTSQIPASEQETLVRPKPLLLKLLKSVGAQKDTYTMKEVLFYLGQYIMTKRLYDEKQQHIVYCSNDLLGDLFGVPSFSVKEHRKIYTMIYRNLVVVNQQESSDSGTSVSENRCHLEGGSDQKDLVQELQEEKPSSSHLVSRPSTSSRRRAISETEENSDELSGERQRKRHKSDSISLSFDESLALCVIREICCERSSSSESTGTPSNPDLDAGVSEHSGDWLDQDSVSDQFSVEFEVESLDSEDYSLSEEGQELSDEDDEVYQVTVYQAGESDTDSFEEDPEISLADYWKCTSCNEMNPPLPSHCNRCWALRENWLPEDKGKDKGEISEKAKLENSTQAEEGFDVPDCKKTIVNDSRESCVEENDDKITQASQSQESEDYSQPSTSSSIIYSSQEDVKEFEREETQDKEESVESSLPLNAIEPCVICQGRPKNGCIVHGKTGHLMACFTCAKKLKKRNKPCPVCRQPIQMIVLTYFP

binding result	Binder
binds	recombinant hMDMX^p60 (natural protein) MDIPSQDQLKQSAEESSTSRKRTTEDDIPTLPTSEHKCIHSREDEDLIENLAQDETSRLDLGFEEWDVAGLPWWFLGNLRSNYTPRSNGSTDLQTNQDVGTAIVSDTTDDLWFLNESVSEQLGVGIKVEAADTEQTSEEVGKVSDKKVIEVGKNDDLEDSKSLSDDTDVEVTSEDEWQCTECKKFNSPSKRYCFRCWALRKDWYSDCSKLTHSLSTSDITAIPEKENEGNDVPDCRRTISAPVVRPKDAYIKKENSKLFDPCNSVEFLDLAHSSESQETISSMGEQLDNLSEQRTDTENMEDCQNLLKPCSLCEKRPRDGNIIHGRTGHLVTCFHCARRLKKAGASCPICKKEIQLVIKVFIA
binds	recombinant hMDMX^FL (natural protein) MTSFSTSAQCSTSDSACRISPGQINQVRPKLPLLKILHAAGAQGEMFTVKEVMHYLGQYIMVKQLYDQQEQHMVYCGGDLLGELLGRQSFSVKDPSPLYDMLRKNLVTLATATTDAAQTLALAQDHSMDIPSQDQLKQSAEESSTSRKRTTEDDIPTLPTSEHKCIHSREDEDLIENLAQDETSRLDLGFEEWDVAGLPWWFLGNLRSNYTPRSNGSTDLQTNQDVGTAIVSDTTDDLWFLNESVSEQLGVGIKVEAADTEQTSEEVGKVSDKKVIEVGKNDDLEDSKSLSDDTDVEVTSEDEWQCTECKKFNSPSKRYCFRCWALRKDWYSDCSKLTHSLSTSDITAIPEKENEGNDVPDCRRTISAPVVRPKDAYIKKENSKLFDPCNSVEFLDLAHSSESQETISSMGEQLDNLSEQRTDTENMEDCQNLLKPCSLCEKRPRDGNIIHGRTGHLVTCFHCARRLKKAGASCPICKKEIQLVIKVFIA
